Measured values published in publication PMC4446446 (Nucleic Acids Research, 2015).

T1: SDR5C1, wild type, N-terminally His-tagged (human), Q99714
T1 chain: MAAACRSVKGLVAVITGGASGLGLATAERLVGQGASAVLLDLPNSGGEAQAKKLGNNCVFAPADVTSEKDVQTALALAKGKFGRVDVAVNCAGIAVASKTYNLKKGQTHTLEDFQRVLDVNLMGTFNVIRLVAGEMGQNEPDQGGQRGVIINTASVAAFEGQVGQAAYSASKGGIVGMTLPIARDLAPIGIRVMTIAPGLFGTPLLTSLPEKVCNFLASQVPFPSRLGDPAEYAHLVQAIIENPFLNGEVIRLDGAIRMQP

B1: SDR5C1, wild type, N-terminally His-tagged, Q99714 1-261 (enzyme)
chain: MAAACRSVKGLVAVITGGASGLGLATAERLVGQGASAVLLDLPNSGGEAQAKKLGNNCVFAPADVTSEKDVQTALALAKGKFGRVDVAVNCAGIAVASKTYNLKKGQTHTLEDFQRVLDVNLMGTFNVIRLVAGEMGQNEPDQGGQRGVIINTASVAAFEGQVGQAAYSASKGGIVGMTLPIARDLAPIGIRVMTIAPGLFGTPLLTSLPEKVCNFLASQVPFPSRLGDPAEYAHLVQAIIENPFLNGEVIRLDGAIRMQP
B2: SDR5C1 N247S, N-terminally His-tagged (enzyme)
chain: MAAACRSVKGLVAVITGGASGLGLATAERLVGQGASAVLLDLPNSGGEAQAKKLGNNCVFAPADVTSEKDVQTALALAKGKFGRVDVAVNCAGIAVASKTYNLKKGQTHTLEDFQRVLDVNLMGTFNVIRLVAGEMGQNEPDQGGQRGVIINTASVAAFEGQVGQAAYSASKGGIVGMTLPIARDLAPIGIRVMTIAPGLFGTPLLTSLPEKVCNFLASQVPFPSRLGDPAEYAHLVQAIIENPFLSGEVIRLDGAIRMQP
B3: SDR5C1 R226Q, N-terminally His-tagged (enzyme)
chain: MAAACRSVKGLVAVITGGASGLGLATAERLVGQGASAVLLDLPNSGGEAQAKKLGNNCVFAPADVTSEKDVQTALALAKGKFGRVDVAVNCAGIAVASKTYNLKKGQTHTLEDFQRVLDVNLMGTFNVIRLVAGEMGQNEPDQGGQRGVIINTASVAAFEGQVGQAAYSASKGGIVGMTLPIARDLAPIGIRVMTIAPGLFGTPLLTSLPEKVCNFLASQVPFPSQLGDPAEYAHLVQAIIENPFLNGEVIRLDGAIRMQP
B4: SDR5C1 P210S, N-terminally His-tagged (enzyme)
chain: MAAACRSVKGLVAVITGGASGLGLATAERLVGQGASAVLLDLPNSGGEAQAKKLGNNCVFAPADVTSEKDVQTALALAKGKFGRVDVAVNCAGIAVASKTYNLKKGQTHTLEDFQRVLDVNLMGTFNVIRLVAGEMGQNEPDQGGQRGVIINTASVAAFEGQVGQAAYSASKGGIVGMTLPIARDLAPIGIRVMTIAPGLFGTPLLTSLSEKVCNFLASQVPFPSRLGDPAEYAHLVQAIIENPFLNGEVIRLDGAIRMQP
B5: SDR5C1 K172A, N-terminally His-tagged (enzyme)
chain: MAAACRSVKGLVAVITGGASGLGLATAERLVGQGASAVLLDLPNSGGEAQAKKLGNNCVFAPADVTSEKDVQTALALAKGKFGRVDVAVNCAGIAVASKTYNLKKGQTHTLEDFQRVLDVNLMGTFNVIRLVAGEMGQNEPDQGGQRGVIINTASVAAFEGQVGQAAYSASAGGIVGMTLPIARDLAPIGIRVMTIAPGLFGTPLLTSLPEKVCNFLASQVPFPSRLGDPAEYAHLVQAIIENPFLNGEVIRLDGAIRMQP
B6: SDR5C1 R130C, N-terminally His-tagged (enzyme)
chain: MAAACRSVKGLVAVITGGASGLGLATAERLVGQGASAVLLDLPNSGGEAQAKKLGNNCVFAPADVTSEKDVQTALALAKGKFGRVDVAVNCAGIAVASKTYNLKKGQTHTLEDFQRVLDVNLMGTFNVICLVAGEMGQNEPDQGGQRGVIINTASVAAFEGQVGQAAYSASKGGIVGMTLPIARDLAPIGIRVMTIAPGLFGTPLLTSLPEKVCNFLASQVPFPSRLGDPAEYAHLVQAIIENPFLNGEVIRLDGAIRMQP
B7: TRMT10C, native (untagged) (enzyme)
chain: MSSKIPAVTYPKNESTPPSEELELDKWKTTMKSSVQEECVSTISSSKDEDPLAATREFIEMWRLLGREVPEHITEEELKTLMECVSNTAKKKYLKYLYTKEKVKKARQIKKEMKAAAREEAKNIKLLETTEEDKQKNFLFLRLWDRNMDIAMGWKGAQAMQFGQPLVFDMAYENYMKRKELQNTVSQLLESEGWNRRNVDPFHIYFCNLKIDGALHRELVKRYQEKWDKLLLTSTEKSHVDLFPKDSIIYLTADSPNVMTTFRHDKVYVIGSFVDKSMQPGTSLAKAKRLNLATECLPLDKYLQWEIGNKNLTLDQMIRILLCLKNNGNWQEALQFVPKRKHTGFLEISQHSQEFINRLKKAKT

Assays:
[1] = biological target: T1, SDR5C1, wild type, N-terminally …; experiment: native gel or EMSA; settings: remark: other sources report otherwise
native gel or EMSA = biological target: the molecule itself; experiment: native gel or EMSA
SEC = biological target: the molecule itself; experiment: SEC
[2] = biological target: B6; experiment: pull-down
[3] = biological target: B4; experiment: pull-down
[4] = biological target: B3; experiment: pull-down
[5] = biological target: B2; experiment: pull-down
[6] = biological target: B5; experiment: pull-down

| Binder | Tetramerized SDR5C1 (percent) (native gel or EMSA) [%] | stoichiometry N (SEC) | also measured |
| --- | --- | --- | --- |
| B1 |  |  | Tetramerized SDR5C1 (percent) [1]: 100% |
| B2 | 25.8 |  |  |
| B3 | 26 |  |  |
| B4 | 100 | 4 |  |
| B5 | 100 | 4 |  |
| B6 | 100 | 4 |  |
| B7 |  |  | Complexed TRMT10C (mass percentage of the complex) [2]: 28.7%; Complexed TRMT10C (mass percentage of the complex) [3]: 39.7%; Complexed TRMT10C (mass percentage of the complex) [4]: 14.3%; Complexed TRMT10C (mass percentage of the complex) [5]: 9.3%; Complexed TRMT10C (mass percentage of the complex) [6]: 43% |
